Tests used:
[1] = target: unprocessed hMPV PreF trimer (wild-type hMPV F ectodomain trimer, strain B2, C-terminal GCN4 trimerization … (Human metapneumovirus, subgroup B2 …, UniProt Q6W8S4, strain)); assay: cell-based or functional assay
[2] = target: T1, processed stabilized hMPV PreF trimer (115BV), co-expressed with furin (Human metapneumovirus, subgroup B2 …, UniProt Q6W8S4, stabilised); assay: cryo-EM structure; M4B06 Fab incubated with processed PreF (115BV) trimer (trimer:Fab = 1:3) for 1 h at 4 °C, purified on Superdex 200 Increase in 25 mM HEPES pH 7.5, 150 mM NaCl; map at 3.75 Å, no symmetry imposed; Fab not built; conditions: both partners purified
T1 construct: F2 chain of the fusion (F) glycoprotein of human metapneumovirus, strain B2, after cleavage by co-expressed furin; disulfide-linked to F1; F1 chain (ectodomain part) of the fusion (F) glycoprotein of human metapneumovirus, strain B2, after cleavage by co-expressed furin; also called processed PreF; prefusion-stabilized hMPV F trimer 115BV; source: Expi293, co-transfected with furin at 1:1, …

B1: M4B06 IgG (antibody, V domains shown)
VH: EVQLLESGGGFVQPGGSLRLSCVVTGFTFSNYAMCWVRQAPGKGPEWVSGIGGSVGTTYYADSVKGRFTISRDNSKNTLYLQMSGLRAEDTARYYCAKVPSFFVFEDGFDMWGQGTVVTVSS
VL: QSVLTQPPSASGNPGQRVTISCYGSGSNIGNNYVHWFRQLPGTAPRLLIYNTDILVPGVPDRFSGSESGTSASLAISGLQSGDEADYFCAAWDDTLNGYVFGPGTTVTVL
Q: For B1, which “neutralization IC50, hMPV A virus (plaque reduction neutralization assay)” value [1] is on record?
A: 3.5 ng/mL

Q: And the “neutralization IC50, hMPV B virus (plaque reduction neutralization assay)” value [1]?
A: 2.2 ng/mL

B2: M4B06 Fab (Fab, V domains shown)
VH: EVQLLESGGGFVQPGGSLRLSCVVTGFTFSNYAMCWVRQAPGKGPEWVSGIGGSVGTTYYADSVKGRFTISRDNSKNTLYLQMSGLRAEDTARYYCAKVPSFFVFEDGFDMWGQGTVVTVSS
VL: QSVLTQPPSASGNPGQRVTISCYGSGSNIGNNYVHWFRQLPGTAPRLLIYNTDILVPGVPDRFSGSESGTSASLAISGLQSGDEADYFCAAWDDTLNGYVFGPGTTVTVL
notes: as the heavy chain of m4 before CDR3 (germline IGHV3-23*01); heavy chain CDR3; rest of VH after CDR3 and CH1 of the Fab; as the light chain of m4 before CDR3 (germline IGLV1-44*01); light chain CDR3; as the light chain of m4 after CDR3; The Fab was not built in the cryo-EM density map; also called M4B06 monovalent Fab; source: recombinantly purified
Q: How did the “stoichiometry N” value [2] turn out when B2 was run?
A: 3 Fabs per PreF trimer
